Data published in patent publication US20220251170A1 (KOREA INSTITUTE OF SCIENCE AND TECHNOLOGY, published 2022).

Target: T1, human CD47 on the surface of HT29 and Raji tumor cells (human, UniProt Q08722 19-323)
T1 construct: whole, on cells; also called cell surface CD47
Test: cell binding assay, flow cytometry, anti-Myc detection (FIG. 15A)
Description: Cell binding analysis according to one embodiment of the present invention was carried out by culturing HT29 human colon adenocarcinoma (ATCC), Raji human B cell lymphoma (ATCC) and CT26.CL25 mouse colon cancer cells (ATCC) in RPMI-1640 culture medium supplemented with 10% FBS and 1% antibiotics and the cultures were maintained at 37° C. and 5% CO₂. HT29 and Raji cells were then cultured with the addition of an anti-human CD47 antibody (B6H12.2, Abcam, ab3283) and CT26.CL25 cells were incubated with anti-mouse CD47 antibody (Santa Cruz, sc-12731). For cell binding assays, HT29, Raji and CT26.CL25 cells (1×10⁶) were incubated at 4° C. for 30 minutes with the addition of PBS, exosomes or mSIRPα, respectively. The cells were then incubated with anti-Myc antibodies (1:400, Abcam, ab9106) and detected by the addition of Alexa fluor 488-conjugated secondary antibody (1:800, Jackson ImmunoResearch). The cells were then measured using an Accuri™ C6 flow cytometer (BD Biosciences) and analyzed using FlowJo_V10 software (FlowJo). The binding specificity of SIRPα-exosomes to CD47 was analyzed by block experiments through pre-incubation of cells with anti-human CD47 antibody (1:100, Abcam, ab3283).

T1 sequence (Q08722 19-323): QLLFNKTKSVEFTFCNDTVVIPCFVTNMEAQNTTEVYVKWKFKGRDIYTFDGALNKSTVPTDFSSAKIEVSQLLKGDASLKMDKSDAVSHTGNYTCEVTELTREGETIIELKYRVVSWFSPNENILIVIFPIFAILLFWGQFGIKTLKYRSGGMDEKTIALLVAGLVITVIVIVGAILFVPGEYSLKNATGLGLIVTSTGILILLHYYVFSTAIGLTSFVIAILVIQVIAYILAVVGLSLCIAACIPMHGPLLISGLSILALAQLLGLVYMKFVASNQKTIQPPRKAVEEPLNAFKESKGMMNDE

B1: purified recombinant SIRPα-Myc monomer protein (mSIRPα) (receptor)
chain: EEELQIIQPDKSVLVAAGETATLRCTITSLFPVGPIQWFRGAGPGRVLIYNQRQGPFPRVTTVSDTTKRNNMDFSIRIGNITPADAGTYYCIKFRKGSPDDVEFKSGAGTELSVRAKP
notes: Expressed in bacteria from pET-28a (Nde I-SIRPα variant-Myc-Hind III), purified on Ni-NTA; also called monomeric SIRPα protein; recombinant SIRPα protein; not shown: N-terminal histidine tag from pET-28a; C-terminal Myc tag
B1: binds.
